The test deals with wild-type human TRAILR1 (human), O00220. In words: radioligand binding; competition on cells: 4x10^5 murine fibroblasts expressing the (chimeric) TRAIL receptor in PFA (PBS, 2% FCS, 0.002% sodium azide), 83 ng/ml 125I-TRAIL with or without unlabeled recombinant human TRAIL (83-5300 ng/ml), 4 hours on ice; cells spun through phthalate oil; 68 kDa used for TRAIL. To be noted: remark: other sources report otherwise.

B1: Flag-tagged recombinant human TRAIL (sTRAIL), unlabeled, P50591 95-281 (ligand)
chain: TSEETISTVQEKQQNISPLVRERGPQRVAAHITGTRGRSNTLSSPNSKNEKALGRKINSWESSRSGHSFLSNLHLRNGELVIHEKGFYYIYSQTYFRFQEEIKENTKNDKQMVQYIYKYTSYPDPILLMKSARNSCWSKDAEYGLYSIYQGGIFELKENDRIFVSVTNEHLIDMDHEASFFGAFLVG
What is called IC50 is the concentration at which inhibition is half-maximal. As to B1, the 50% inhibitory concentration (IC50) was found to be 17.7 nM.

The values above are taken from article PMC3420232.
